Data on one molecule can be found in patent publication US20250059270A1.

Bounds are passed on as bounds.

Experiment [1] deals with human IL-6R on HEK-Blue IL6 reporter cells (human) (UniProt P08887). The experiment can be described thus: cell-based or functional assay.
Experiment [2] has as its target hyper IL-6. The experiment can be described thus: cell-based or functional assay.

Sequence of human IL-6R on HEK-Blue IL6 reporter cells (human) (P08887 20-468): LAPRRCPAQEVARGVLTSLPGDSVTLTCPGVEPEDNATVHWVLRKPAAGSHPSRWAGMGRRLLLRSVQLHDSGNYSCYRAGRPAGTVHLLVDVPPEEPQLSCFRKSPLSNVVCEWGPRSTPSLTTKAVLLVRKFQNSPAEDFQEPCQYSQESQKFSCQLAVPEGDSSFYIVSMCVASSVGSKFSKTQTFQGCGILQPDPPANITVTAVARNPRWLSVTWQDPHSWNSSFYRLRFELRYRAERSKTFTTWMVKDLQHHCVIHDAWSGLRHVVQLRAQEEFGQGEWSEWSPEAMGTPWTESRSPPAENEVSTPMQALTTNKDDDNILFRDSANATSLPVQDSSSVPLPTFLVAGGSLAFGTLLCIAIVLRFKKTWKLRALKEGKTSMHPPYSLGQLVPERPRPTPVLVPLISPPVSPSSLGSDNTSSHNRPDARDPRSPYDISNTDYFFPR

B1: Tocilizumab (antibody, part only; not given: constant regions, V domains shown, not shown: another chain or arm of the molecule)
VH: QVQLQESGPGLVRPSQTLSLTCTVSGYSITSDHAWSWVRQPPGRGLEWIGYISYSGITTYNPSLKSRVTMLRDTSKNQFSLRLSSVTAADTAVYYCARSLARTTAMDYWGQGSLVTVSS
VL: DIQMTQSPSSLSASVGDRVTITCRASQDISSYLNWYQQKPGKAPKLLIYYTSRLHSGVPSRFSGSGSGTDFTFTISSLQPEDIATYYCQQGNTLPYTFGQGTKVEIK
In experiment [1], B1 showed an IC50, HEK-Blue IL6 reporter cells, 20 pM IL-6 of 1490 pM; an IC50, cis-signaling, HEK-Blue IL6 cells, 20 pM free IL-6 of 12.9 nM; an IC90, HEK-Blue IL6 reporter cells, 20 pM IL-6 of 23700 pM. Besides, the trans-signaling, HEK-Blue IL6 cells, 200 pM hyper IL-6 in experiment [2] is more than 1 µM.
